System: growth of yeast strains under 51 stress conditions
Experiment: Growth assays in 51 stress conditions (Fig. 1E-F, S2D, S5B)
Type: cell-based, Saccharomyces cerevisiae
Parameters: key to Growth (Fig. S2D) / growth of ABP1 SH3-swapped strains in stress condition: log2 colony size, average of median per strain (growth score)
Settings: ABP1 SH3-swapped strains
Method: All WT, SH3-deleted, KO (except for CDC25 which is the only essential SH3-containing gene in yeast), ABP1 SH3-swapped, and SLA1 SH3-shuffled strains were grown on omnitrays in 1536 formats and robotically manipulated with a pin tool (the DHFR F[1,2] bait strains were used except for the KO strains). Each strain was randomly positioned in 6 replicates per plate and two plates per condition were performed, for 12 replicates per strain in total. A border of two rows and two columns of WT strains (BY4741) around the plate was used to remove border effects. Strains were grown on YPD media for two days at 30 °C. They were then replicated on 51 different media that are described in the Supplementary Table 3 and were incubated at 37 °C in a spImager custom platform with images acquired every two hours for four days. The colony sizes from plate pictures were also measured with the R package “Gitter” and the output was manually inspected. Positions with an abnormality in colony circularity were removed. The colony sizes after 74 h of incubation at 37 °C were log2 transformed and used for the analyses. First, the differences between the two plate replicates were corrected to remove plate effects. The median colony size was calculated for each strain per plate. Strains with a difference in their median colony size of more than two between the two plate replicates were removed. Finally, the average of the median colony size was calculated for each strain per condition (growth score).

B1: CYK3 (protein, UniProt Q07533 1-885, looked up)
Cytokinesis protein 3: MATNLTSLKPPFKVKARYGWSGQTKGDLGFLEGDIMEVTRIAGSWFYGKLLRNKKCSGYFPHNFVILLEERLNSSTENGRQPSKIVESFEKSNKVVIPPVPSRYSDERPRPKKKLSSSMPNSPKKPVDSLTKARKAKSKEMVNEKNIYNTQSSRHHNNSAPNLPLASHSKPQVRNFEESMNNPLPPLPPLPDLDNMRKTDKRAPKKSYSANDLHMARSSREYNYYKDNQKFYDGFIPEKRYSLEEDSISSGLFSNSQYLNDSACSSENSFALMSDFSATSAGSFARHKYAQSFSDSLQRSQNANGCSTKINDSQEFGDSNASSRNGKMGDILRKIIIPKRNTNIYSSSVSSPKSPKAYPKLPDIQNLNLSATPDEARDWIAVKCHLNRARTLTKYDKHPRYMRALEENRDLILHPQDSIYNGLNTNEVKGNTKPGLVDVELAELNIEYIDKMTWKRCIRDGTMTLDSWAQTTFSARYSTVLEKLRGIYIFCTEMFALTDDNGTSDFSAEPQNLEKILYRKHCTPYELTWLFKKLANSLGITCEIVIGFLKTPSAINWEFKYNHCWLRILVNKEWRFIDVILGNVTNPIHEFVNNRKIKKAENSYFLMAPLEMIYTHIPPREFEQHIVPSIDQLSALYLPLVFPSFFKNELKLYKFSTALSFLEDSEIYECSLEIPNDVEVFASVVIPTDNEEASSAYRNMELALTQIKKQKAESGRRIALIKAVLPPNVNKGSLYIHSGVRGTQTSIANIHPLSMMVPLTHKGSNMKYEFVIKIPSESIQKIELYIVEPQSRYLFVGNEYSFEVIQSPSDGIVYSSDEGPNQNRKQPMAIKSPSGRVHELVKSDPHFPYGTWKGSIKIKEPGVWSALVIADSGIGWSVFAEWLCV
Q: What does the source list for B1?
A: Growth (Fig. S2D) (Bathophenanthroline.0.1uM): 10.8556; Growth (Fig. S2D) (Bathophenanthroline.10uM): 10.6576; Growth (Fig. S2D) (Bathophenanthroline.1uM): 10.8513; Growth (Fig. S2D) (CaCl2.100mM): 10.8897; Growth (Fig. S2D) (CaCl2.250mM): 10.7885; Growth (Fig. S2D) (CaCl2.500mM): 10.3059; Growth (Fig. S2D) (Caffein.10mM): 9.982; Growth (Fig. S2D) (Caffein.2mM): 10.9591; Growth (Fig. S2D) (CdCl2.100uM): 9.489; Growth (Fig. S2D) (CdCl2.10uM): 10.8859; Growth (Fig. S2D) (CdCl2.50uM): 9.907; Growth (Fig. S2D) (CuSO4.1mM): 10.4416; Growth (Fig. S2D) (CuSO4.5mM): 8.067; Growth (Fig. S2D) (Cycloheximide.0.05.uM): 11.0397; Growth (Fig. S2D) (Cycloheximide.0.2.uM): 10.6845; Growth (Fig. S2D) (Cycloheximide.0.5.uM): 10.0538; Growth (Fig. S2D) (DMSO.2.): 11.074; Growth (Fig. S2D) (DMSO.6.): 9.997; Growth (Fig. S2D) (DMSO.8.): 9.341; Growth (Fig. S2D) (Ethanol.2.): 10.829; Growth (Fig. S2D) (Ethanol.6.): 10.3434; Growth (Fig. S2D) (Ethanol.8.): 10.1675; Growth (Fig. S2D) (Galactose.2.): 10.8951; Growth (Fig. S2D) (Glycerol.2.): 9.685; Growth (Fig. S2D) (Hydroxyurea.25mM): 10.7817; Growth (Fig. S2D) (Hygromycin.190uM): 10.9791; Growth (Fig. S2D) (Hygromycin.19uM): 10.9621; Growth (Fig. S2D) (Hygromycin.95uM): 11.0521; Growth (Fig. S2D) (MMS.0.004.): 10.9601; Growth (Fig. S2D) (MMS.0.02.): 10.7185; Growth (Fig. S2D) (MMS.0.04.): 9.916; Growth (Fig. S2D) (Menadione.100uM): 10.6134; Growth (Fig. S2D) (Menadione.200uM): 10.436; Growth (Fig. S2D) (Menadione.50uM): 10.8202; Growth (Fig. S2D) (NaCl.0.25M): 10.7906; Growth (Fig. S2D) (NaCl.1M): 9.617; Growth (Fig. S2D) (Nitroquinoline.10uM): 10.7078; Growth (Fig. S2D) (Nitroquinoline.50uM): 10.6701; Growth (Fig. S2D) (Nystatin.0.01uM): 11.0601; Growth (Fig. S2D) (Nystatin.0.1uM): 11.0266; Growth (Fig. S2D) (Raffinose.2.): 11.0502; Growth (Fig. S2D) (Rapamycin.10nM): 9.888; Growth (Fig. S2D) (Rapamycin.50nM): 9.494; Growth (Fig. S2D) (SC.pH3): 10.4532; Growth (Fig. S2D) (SC.pH6): 11.0119; Growth (Fig. S2D) (SDS.0.01.): 11.0053; Growth (Fig. S2D) (SDS.0.02.): 10.9934; Growth (Fig. S2D) (SDS.0.05.): 10.9282; Growth (Fig. S2D) (Sorbitol.10mM): 11.048; Growth (Fig. S2D) (Sorbitol.1mM): 11.0333; Growth (Fig. S2D) (Sorbitol.5mM): 10.9546

B2: FUS1 (protein, UniProt P11710 1-512, looked up)
Nuclear fusion protein FUS1: MVATIMQTTTTVLTTVAAMSTTLASNYISSQASSSTSVTTVTTIATSIRSTPSNLLFSNVAAQPKSSSASTIGLSIGLPIGIFCFGLLILLCYFYLKRNSVSISNPPMSATIPREEEYCRRTNWFSRLFWQSKCEDQNSYSNRDIEKYNDTQWTSGDNMSSKIQYKISKPIIPQHILTPKKTVKNPYAWSGKNISLDPKVNEMEEEKVVDAFLYTKPPNIVHIESSMPSYNDLPSQKTVSSKKTALKTSEKWSYESPLSRWFLRGSTYFKDYGLSKTSLKTPTGAPQLKQMKMLSRISKGYFNESDIMPDERSPILEYNNTPLDANDSVNNLGNTTPDSQITSYRNNNIDLITARPHSVIYGTTAQQTLETNFNDHHDCNKSTEKHELIIPTPSKPLKKRKKRRQSKMYQHLQHLSRSKPLPLTPNSKYNGEASVQLGKTYTVIQDYEPRLTDEIRISLGEKVKILATHTDGWCLVEKCNTQKGSIHVSVDDKRYLNEDRGIVPGDCLQEYD
Q: For B2, which “Growth (Fig. S2D)” value (Bathophenanthroline.0.1uM) is on record?
A: 10.7893

Q: What about the “Growth (Fig. S2D)” value (Bathophenanthroline.10uM) of the same molecule?
A: 10.6947

Q: What about the “Growth (Fig. S2D)” value (Bathophenanthroline.1uM) of the same molecule?
A: 10.778

Q: What about the “Growth (Fig. S2D)” value (CaCl2.100mM) of the same molecule?
A: 10.8206

Q: What about the “Growth (Fig. S2D)” value (CaCl2.250mM) of the same molecule?
A: 10.8008

Q: What about the “Growth (Fig. S2D)” value (CaCl2.500mM) of the same molecule?
A: 10.319

Q: And the “Growth (Fig. S2D)” value (Caffein.10mM)?
A: 10.109

Q: What about the “Growth (Fig. S2D)” value (Caffein.2mM) of the same molecule?
A: 11.0074

Q: And the “Growth (Fig. S2D)” value (CdCl2.100uM)?
A: 9.381

Q: And the “Growth (Fig. S2D)” value (CdCl2.10uM)?
A: 10.9194

Q: What about the “Growth (Fig. S2D)” value (CdCl2.50uM) of the same molecule?
A: 9.89

Q: What about the “Growth (Fig. S2D)” value (CuSO4.1mM) of the same molecule?
A: 10.4955

Q: And the “Growth (Fig. S2D)” value (CuSO4.5mM)?
A: 8.084

Q: And the “Growth (Fig. S2D)” value (Cycloheximide.0.05.uM)?
A: 11.1072

Q: What about the “Growth (Fig. S2D)” value (Cycloheximide.0.2.uM) of the same molecule?
A: 10.666

Q: And the “Growth (Fig. S2D)” value (Cycloheximide.0.5.uM)?
A: 10.227

Q: And the “Growth (Fig. S2D)” value (DMSO.2.)?
A: 11.051

Q: And the “Growth (Fig. S2D)” value (DMSO.6.)?
A: 9.944

Q: What about the “Growth (Fig. S2D)” value (DMSO.8.) of the same molecule?
A: 9.179

Q: What about the “Growth (Fig. S2D)” value (Ethanol.2.) of the same molecule?
A: 10.7876

Q: And the “Growth (Fig. S2D)” value (Ethanol.6.)?
A: 10.3273

Q: And the “Growth (Fig. S2D)” value (Ethanol.8.)?
A: 10.1194

Q: And the “Growth (Fig. S2D)” value (Galactose.2.)?
A: 10.7919

Q: And the “Growth (Fig. S2D)” value (Glycerol.2.)?
A: 9.646

Q: And the “Growth (Fig. S2D)” value (Hydroxyurea.25mM)?
A: 10.8071

Q: And the “Growth (Fig. S2D)” value (Hygromycin.190uM)?
A: 11.0027

Q: And the “Growth (Fig. S2D)” value (Hygromycin.19uM)?
A: 11.0061

Q: What about the “Growth (Fig. S2D)” value (Hygromycin.95uM) of the same molecule?
A: 11.0532

Q: What about the “Growth (Fig. S2D)” value (MMS.0.004.) of the same molecule?
A: 10.9625

Q: And the “Growth (Fig. S2D)” value (MMS.0.02.)?
A: 10.7139

Q: What about the “Growth (Fig. S2D)” value (MMS.0.04.) of the same molecule?
A: 10.0597

Q: What about the “Growth (Fig. S2D)” value (Menadione.100uM) of the same molecule?
A: 10.6065

Q: And the “Growth (Fig. S2D)” value (Menadione.200uM)?
A: 10.4266

Q: What about the “Growth (Fig. S2D)” value (Menadione.50uM) of the same molecule?
A: 10.8061

Q: What about the “Growth (Fig. S2D)” value (NaCl.0.25M) of the same molecule?
A: 10.6954

Q: And the “Growth (Fig. S2D)” value (NaCl.1M)?
A: 9.8389

Q: And the “Growth (Fig. S2D)” value (Nitroquinoline.10uM)?
A: 10.6415

Q: What about the “Growth (Fig. S2D)” value (Nitroquinoline.50uM) of the same molecule?
A: 10.6237

Q: What about the “Growth (Fig. S2D)” value (Nystatin.0.01uM) of the same molecule?
A: 11.0226

Q: What about the “Growth (Fig. S2D)” value (Nystatin.0.1uM) of the same molecule?
A: 11.0679

Q: And the “Growth (Fig. S2D)” value (Raffinose.2.)?
A: 11.0059

Q: What about the “Growth (Fig. S2D)” value (Rapamycin.10nM) of the same molecule?
A: 9.886

Q: And the “Growth (Fig. S2D)” value (Rapamycin.50nM)?
A: 9.356

Q: What about the “Growth (Fig. S2D)” value (SC.pH3) of the same molecule?
A: 10.3927

Q: And the “Growth (Fig. S2D)” value (SC.pH6)?
A: 11.04

Q: What about the “Growth (Fig. S2D)” value (SDS.0.01.) of the same molecule?
A: 10.9614

Q: What about the “Growth (Fig. S2D)” value (SDS.0.02.) of the same molecule?
A: 10.9777

Q: What about the “Growth (Fig. S2D)” value (SDS.0.05.) of the same molecule?
A: 10.8408

Q: And the “Growth (Fig. S2D)” value (Sorbitol.10mM)?
A: 10.9835

Q: And the “Growth (Fig. S2D)” value (Sorbitol.1mM)?
A: 11.0132

Q: And the “Growth (Fig. S2D)” value (Sorbitol.5mM)?
A: 10.8904
